Assay results as given in patent US20170121381A1 (RAMOT AT TEL AVIV UNIVERSITY, published 2017).

Biological target: T1, purified active human caspase-6 (human, UniProt P55212 24-179; P55212 194-293, limits assumed)
T1 sequence (looked up) 1: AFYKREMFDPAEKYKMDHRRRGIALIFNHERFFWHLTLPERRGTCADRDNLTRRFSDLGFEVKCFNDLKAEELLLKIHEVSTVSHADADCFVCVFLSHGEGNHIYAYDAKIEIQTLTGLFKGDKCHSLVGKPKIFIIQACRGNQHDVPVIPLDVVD
T1 sequence (looked up) 2: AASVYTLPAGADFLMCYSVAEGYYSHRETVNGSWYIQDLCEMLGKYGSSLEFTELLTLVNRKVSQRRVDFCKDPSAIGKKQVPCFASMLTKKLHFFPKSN
Assay: cell-based or functional assay

**Q.** With GRKKRRQRRRPPQSSEIVLDGTDN [ED11] as the binder, how does the “Km of Michaelis-Menten curve, Caspase-Glo 6 assay with Z-VEID-aminoluciferin, 10 uM ED11” value read?
**A.** 3.3 fold
